The values below come from patent US20240261333A1, “NOVEL TARGETS FOR ENHANCING ANTI-TUMOR IMMUNITY” (THE BROAD INSTITUTE, INC., priority 2021, published 2024).

One assay concerns the target PPFIBP1 (human) (UniProt Q86W92). As to the kind of experiment: co-IP with anti-FLAG, C-FLAG B3GNT2, mass spectrometry.
In a further assay the target is HNRNPH1 (human) (UniProt P31943). The description is as above.
Another assay deals with PURA (human) (UniProt Q00577). The description is as above.
The target of the next assay is T1, YTHDF2 (human) (UniProt Q9Y5A9).
T1 sequence (looked up): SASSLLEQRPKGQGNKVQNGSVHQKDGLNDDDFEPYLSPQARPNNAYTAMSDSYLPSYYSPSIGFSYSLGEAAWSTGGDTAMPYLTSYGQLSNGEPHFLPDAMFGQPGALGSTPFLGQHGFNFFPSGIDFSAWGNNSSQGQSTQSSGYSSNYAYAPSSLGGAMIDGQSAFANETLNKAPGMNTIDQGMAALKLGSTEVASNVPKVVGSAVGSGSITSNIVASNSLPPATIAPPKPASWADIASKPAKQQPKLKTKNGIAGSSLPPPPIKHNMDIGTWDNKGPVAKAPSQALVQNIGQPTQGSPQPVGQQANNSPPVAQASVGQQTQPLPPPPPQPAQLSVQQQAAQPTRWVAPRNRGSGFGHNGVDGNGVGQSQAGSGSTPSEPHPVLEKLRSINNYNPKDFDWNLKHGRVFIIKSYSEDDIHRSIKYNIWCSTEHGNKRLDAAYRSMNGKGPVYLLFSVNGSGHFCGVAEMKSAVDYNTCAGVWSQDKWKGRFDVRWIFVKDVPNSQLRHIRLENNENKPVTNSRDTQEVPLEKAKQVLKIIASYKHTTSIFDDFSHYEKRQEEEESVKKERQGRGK
The assay is described as above.

The target in the next assay is MAP4 (human) (UniProt P27816). Described as above.
The next assay concerns the target IL13RA2 (human) (UniProt Q14627). The assay is described as above.
For a further assay, the target named is EMILIN1 (human) (UniProt Q9Y6C2). Described as above.
In a further assay the target is RPS26 (human) (UniProt P62854). Described as above.
A further assay deals with CPT1A (human) (UniProt P50416). The assay is described as above.
For another assay, the target named is LCN1 (human) (UniProt P31025). The assay is described as above.
A further assay deals with PLOD1 (human) (UniProt Q02809). The assay is described as above.
Sequence of PLOD1 (human) (Q02809 19-727 limits assumed): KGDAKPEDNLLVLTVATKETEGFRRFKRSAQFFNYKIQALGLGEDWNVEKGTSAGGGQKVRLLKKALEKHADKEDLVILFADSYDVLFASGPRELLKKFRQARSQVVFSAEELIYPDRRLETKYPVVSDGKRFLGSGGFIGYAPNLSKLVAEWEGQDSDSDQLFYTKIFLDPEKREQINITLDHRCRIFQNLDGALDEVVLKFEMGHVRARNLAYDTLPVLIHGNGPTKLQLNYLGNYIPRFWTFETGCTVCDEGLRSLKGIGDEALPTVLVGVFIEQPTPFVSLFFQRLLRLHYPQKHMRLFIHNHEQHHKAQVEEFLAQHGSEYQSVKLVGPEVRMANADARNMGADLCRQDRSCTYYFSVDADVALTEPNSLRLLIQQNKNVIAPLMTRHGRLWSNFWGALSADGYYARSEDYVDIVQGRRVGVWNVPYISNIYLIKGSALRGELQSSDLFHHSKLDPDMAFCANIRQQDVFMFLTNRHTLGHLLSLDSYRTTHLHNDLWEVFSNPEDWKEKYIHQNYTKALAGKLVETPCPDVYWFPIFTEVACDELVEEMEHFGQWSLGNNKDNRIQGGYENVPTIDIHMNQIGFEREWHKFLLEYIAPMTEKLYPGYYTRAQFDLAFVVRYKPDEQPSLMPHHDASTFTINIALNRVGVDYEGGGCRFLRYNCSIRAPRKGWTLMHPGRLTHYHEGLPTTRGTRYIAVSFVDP
For the next assay, the target named is XPOT (human) (UniProt O43592). The description is as above.
The target in the next assay is SYNCRIP (human) (UniProt O60506). The assay is described as above.
Sequence of SYNCRIP (human) (O60506 other isoform, or with tags, fused parts or gaps limits assumed): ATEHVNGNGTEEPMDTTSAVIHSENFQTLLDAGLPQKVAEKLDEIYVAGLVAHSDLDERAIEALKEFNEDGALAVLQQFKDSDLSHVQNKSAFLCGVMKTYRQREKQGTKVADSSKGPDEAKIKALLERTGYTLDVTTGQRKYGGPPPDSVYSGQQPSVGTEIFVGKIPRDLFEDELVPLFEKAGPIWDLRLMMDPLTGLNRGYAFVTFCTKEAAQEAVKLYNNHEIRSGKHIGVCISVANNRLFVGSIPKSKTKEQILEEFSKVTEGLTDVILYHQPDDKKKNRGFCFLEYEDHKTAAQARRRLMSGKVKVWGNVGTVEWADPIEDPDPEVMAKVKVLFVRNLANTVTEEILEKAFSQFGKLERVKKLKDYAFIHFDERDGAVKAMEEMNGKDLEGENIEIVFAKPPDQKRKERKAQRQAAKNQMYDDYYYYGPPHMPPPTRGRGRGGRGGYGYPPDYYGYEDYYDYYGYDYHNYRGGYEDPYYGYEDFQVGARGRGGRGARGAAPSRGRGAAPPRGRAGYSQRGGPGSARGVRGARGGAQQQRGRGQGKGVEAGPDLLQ
For another assay, the target named is GSN (human) (UniProt P06396). Described as above.
Another assay deals with KCTD5 (human) (UniProt Q9NXV2). The description is as above.
Sequence of KCTD5 (human) (Q9NXV2 2-234 limits assumed): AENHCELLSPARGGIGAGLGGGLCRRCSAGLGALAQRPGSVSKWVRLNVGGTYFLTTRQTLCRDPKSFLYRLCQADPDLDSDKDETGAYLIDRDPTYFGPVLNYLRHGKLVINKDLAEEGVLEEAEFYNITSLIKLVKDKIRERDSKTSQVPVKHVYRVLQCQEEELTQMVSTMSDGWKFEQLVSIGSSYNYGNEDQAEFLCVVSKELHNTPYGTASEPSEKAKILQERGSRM
Another assay addresses RHOT2 (human) (UniProt Q8IXI1). The assay is described as above.
The target in a further assay is LAMC1 (human) (UniProt P11047). The assay is described as above.
The next assay has as its target RACK1 (human) (UniProt P63244). The assay is described as above.
The target in a further assay is SERPINB12 (UniProt Q96P63). The experiment in a line: co-IP with anti-FLAG, mass spectrometry; N-FLAG B3GNT2.
Sequence of SERPINB12 (Q96P63 other isoform, or with tags, fused parts or gaps limits assumed): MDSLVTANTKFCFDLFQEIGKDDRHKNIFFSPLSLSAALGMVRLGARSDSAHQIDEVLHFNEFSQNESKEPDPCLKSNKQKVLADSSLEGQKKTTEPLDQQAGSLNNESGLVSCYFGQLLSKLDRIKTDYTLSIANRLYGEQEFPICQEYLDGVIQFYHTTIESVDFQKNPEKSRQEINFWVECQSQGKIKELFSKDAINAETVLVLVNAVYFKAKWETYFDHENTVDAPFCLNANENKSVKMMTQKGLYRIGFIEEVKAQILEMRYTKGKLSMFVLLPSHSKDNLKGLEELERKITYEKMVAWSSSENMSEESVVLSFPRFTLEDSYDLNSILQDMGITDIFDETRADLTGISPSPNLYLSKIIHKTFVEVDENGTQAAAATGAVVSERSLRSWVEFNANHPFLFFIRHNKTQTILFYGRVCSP
The target in another assay is SSR1 (UniProt P43307). The description is as above.
Sequence of SSR1 (P43307 19-286 limits assumed): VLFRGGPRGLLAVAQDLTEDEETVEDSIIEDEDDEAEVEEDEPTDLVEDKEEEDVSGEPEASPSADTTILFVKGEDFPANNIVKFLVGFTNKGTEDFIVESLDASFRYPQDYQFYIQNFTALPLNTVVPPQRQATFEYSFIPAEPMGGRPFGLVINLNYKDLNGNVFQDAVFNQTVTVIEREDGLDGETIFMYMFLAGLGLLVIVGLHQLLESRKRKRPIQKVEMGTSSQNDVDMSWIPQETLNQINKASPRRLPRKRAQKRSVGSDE
For a further assay, the target named is STRAP (UniProt Q9Y3F4). Described as above.
Sequence of STRAP (Q9Y3F4 whole entry): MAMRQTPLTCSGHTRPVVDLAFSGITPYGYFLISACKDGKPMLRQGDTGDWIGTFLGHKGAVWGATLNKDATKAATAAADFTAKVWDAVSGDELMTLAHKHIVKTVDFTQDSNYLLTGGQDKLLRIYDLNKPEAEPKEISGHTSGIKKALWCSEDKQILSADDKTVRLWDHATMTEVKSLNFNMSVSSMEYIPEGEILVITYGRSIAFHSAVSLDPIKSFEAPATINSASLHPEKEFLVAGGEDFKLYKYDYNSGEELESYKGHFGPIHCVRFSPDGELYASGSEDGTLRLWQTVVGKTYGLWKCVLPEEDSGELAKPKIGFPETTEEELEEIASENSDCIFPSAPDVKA
A further assay deals with SPRR2E (UniProt P22531). Described as above.
In another assay the target is AHNAK (UniProt Q09666). Described as above.
A further assay addresses S100A9 (UniProt P06702). The assay is described as above.
A further assay deals with PPIA (UniProt P62937). The description is as above.
Sequence of PPIA (P62937 2-165 limits assumed): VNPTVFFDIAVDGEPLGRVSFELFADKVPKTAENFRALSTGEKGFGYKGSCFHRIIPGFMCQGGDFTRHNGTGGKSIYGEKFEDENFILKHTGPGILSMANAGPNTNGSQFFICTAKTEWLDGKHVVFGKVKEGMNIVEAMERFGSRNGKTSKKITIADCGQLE
The next assay addresses S100A8 (UniProt P05109). Described as above.
For another assay, the target named is FABP5 (UniProt Q01469). The assay is described as above.
The target in a further assay is YWHAZ (UniProt P63104). The assay is described as above.
The target of another assay is PCMT1 (UniProt P22061). The description is as above.
The target in a further assay is TRIM21 (UniProt P19474). The assay is described as above.
Sequence of TRIM21 (P19474 whole entry): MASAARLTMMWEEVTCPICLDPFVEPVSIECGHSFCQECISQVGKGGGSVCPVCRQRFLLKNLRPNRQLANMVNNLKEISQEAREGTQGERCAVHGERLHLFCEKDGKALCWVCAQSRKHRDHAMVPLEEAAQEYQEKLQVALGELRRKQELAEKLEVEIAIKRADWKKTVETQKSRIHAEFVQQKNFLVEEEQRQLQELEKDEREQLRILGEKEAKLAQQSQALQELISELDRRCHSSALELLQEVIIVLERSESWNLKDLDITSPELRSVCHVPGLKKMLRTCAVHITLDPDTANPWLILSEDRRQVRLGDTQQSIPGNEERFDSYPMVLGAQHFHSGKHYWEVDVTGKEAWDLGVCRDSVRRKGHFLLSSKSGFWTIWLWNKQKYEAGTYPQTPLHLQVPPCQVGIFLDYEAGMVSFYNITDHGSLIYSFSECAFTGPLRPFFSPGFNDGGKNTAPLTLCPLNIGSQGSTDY
The target in the next assay is ATP5F1B (UniProt P06576). Described as above.
Sequence of ATP5F1B (P06576 48-529 limits assumed): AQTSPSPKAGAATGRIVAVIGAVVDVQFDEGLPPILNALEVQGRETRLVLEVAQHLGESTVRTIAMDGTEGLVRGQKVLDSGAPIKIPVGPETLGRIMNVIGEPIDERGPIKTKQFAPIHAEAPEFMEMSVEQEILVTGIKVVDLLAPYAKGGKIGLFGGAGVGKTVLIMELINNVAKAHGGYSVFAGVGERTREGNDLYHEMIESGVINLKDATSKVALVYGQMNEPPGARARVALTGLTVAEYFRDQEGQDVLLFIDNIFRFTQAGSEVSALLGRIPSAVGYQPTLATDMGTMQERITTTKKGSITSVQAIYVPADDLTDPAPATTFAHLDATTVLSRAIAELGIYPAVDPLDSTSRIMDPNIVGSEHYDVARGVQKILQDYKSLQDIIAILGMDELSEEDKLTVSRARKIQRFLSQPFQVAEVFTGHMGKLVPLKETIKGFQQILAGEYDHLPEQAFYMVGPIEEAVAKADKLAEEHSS
A further assay addresses ENO1 (UniProt P06733). Described as above.
The target in the next assay is UBA52 (UniProt P62987). The description is as above.
For another assay, the target named is ACTR3 (UniProt P61158). Described as above.

Sequence of PPFIBP1 (human) (Q86W92 other isoform, or with tags, fused parts or gaps limits assumed): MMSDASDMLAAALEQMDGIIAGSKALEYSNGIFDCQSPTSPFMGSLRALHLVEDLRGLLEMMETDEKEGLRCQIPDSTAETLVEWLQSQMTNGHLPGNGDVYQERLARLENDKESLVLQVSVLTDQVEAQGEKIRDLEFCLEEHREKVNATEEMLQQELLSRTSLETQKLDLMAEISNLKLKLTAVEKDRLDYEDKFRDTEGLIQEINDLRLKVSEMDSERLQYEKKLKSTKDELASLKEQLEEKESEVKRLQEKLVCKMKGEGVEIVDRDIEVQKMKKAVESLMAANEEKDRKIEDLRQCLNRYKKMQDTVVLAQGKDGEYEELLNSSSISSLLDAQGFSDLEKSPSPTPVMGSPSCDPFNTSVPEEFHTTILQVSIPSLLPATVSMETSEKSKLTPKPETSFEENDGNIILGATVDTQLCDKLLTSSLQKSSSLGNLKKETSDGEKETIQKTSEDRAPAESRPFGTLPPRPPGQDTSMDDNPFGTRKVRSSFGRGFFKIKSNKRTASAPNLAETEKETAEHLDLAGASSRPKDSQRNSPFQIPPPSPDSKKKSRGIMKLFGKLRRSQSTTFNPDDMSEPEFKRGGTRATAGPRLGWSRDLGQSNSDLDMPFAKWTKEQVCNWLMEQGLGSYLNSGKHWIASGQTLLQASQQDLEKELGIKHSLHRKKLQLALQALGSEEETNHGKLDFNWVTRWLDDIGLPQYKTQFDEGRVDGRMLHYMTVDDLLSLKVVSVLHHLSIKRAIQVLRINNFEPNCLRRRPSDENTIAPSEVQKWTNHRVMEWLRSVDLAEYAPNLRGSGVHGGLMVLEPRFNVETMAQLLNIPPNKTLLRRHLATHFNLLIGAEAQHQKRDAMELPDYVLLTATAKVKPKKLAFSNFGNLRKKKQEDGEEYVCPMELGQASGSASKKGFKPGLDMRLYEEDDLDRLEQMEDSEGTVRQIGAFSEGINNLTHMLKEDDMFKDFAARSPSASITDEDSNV
Sequence of S100A9 (P06702 whole entry): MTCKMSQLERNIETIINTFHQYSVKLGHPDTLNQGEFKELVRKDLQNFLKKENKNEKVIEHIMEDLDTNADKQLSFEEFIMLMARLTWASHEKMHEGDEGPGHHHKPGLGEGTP
Sequence of S100A8 (P05109 whole entry): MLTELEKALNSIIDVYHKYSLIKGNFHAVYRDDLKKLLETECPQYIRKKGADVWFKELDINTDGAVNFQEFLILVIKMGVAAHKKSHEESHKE

As for “C-terminal FLAG tagged B3GNT2 (from UniProt Q9NY97 1-397) (enzyme)”, the co-IP mass spectrometry count with PPFIBP1 (human) is 3; with YTHDF2 (human) it was 4; with MAP4 (human), 5; with IL13RA2 (human) it was 2; with EMILIN1 (human) it was 3; in the assay with RPS26 (human) it was 11. Besides, the co-IP mass spectrometry count with LCN1 (human) turned out to be 11; in the assay with SYNCRIP (human), 13; in the assay with GSN (human), 3; with KCTD5 (human), 3; with RHOT2 (human), 2; with RACK1 (human), 3. Further, the co-IP/MS count, C-term flag was found to be 15 with HNRNPH1 (human); 3 in the assay with PURA (human); 2 with CPT1A (human); 4 in the assay with PLOD1 (human); 2 with XPOT (human); 4 with LAMC1 (human).

As to “N-terminal FLAG tagged B3GNT2 (from UniProt Q9NY97 1-397) (enzyme)”, the co-IP mass spectrometry count was 4 in the assay with SERPINB12; 3 with SSR1; 4 in the assay with STRAP; 16 in the assay with SPRR2E; 3 with AHNAK; 18 with S100A9. Also, the co-IP mass spectrometry count in the assay with PPIA came out at 6; with S100A8 it was 15; with FABP5, 6; with YWHAZ it was 2; with PCMT1, 4; with TRIM21, 6. Also, the co-IP mass spectrometry count with ATP5F1B is 2; with ENO1, 5; with UBA52, 4; in the assay with ACTR3, 3.
